From the supplement of paper PMC9732359
± gives the uncertainty stated by the source.

Experiment: protein stability index of a GFP-peptide fusion (yeast GPS) (PSI 1-4); higher = more stable; sorted into four equal gates, so the index is relative within each strain
Procedure, shortened: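 Plasmids in a pooled yeast library fused tiled 17-residue yeast protein peptides downstream of GFP and also expressed Cherry. Mid-log cultures grown without leucine were sorted into four equal gates by GFP/Cherry fluorescence ratio. Each gate's plasmids were PCR-amplified and Illumina-sequenced, and reads were matched to strains by barcodes. The protein stability index is derived by multiplying each gate's read frequency by its gate number and summing the results.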

| Sequence | protein stability index (pdr5∆) | protein stability index (san1∆) | protein stability index (ubr1∆) | protein stability index (doa10∆) |
| --- | --- | --- | --- | --- |
| LTEEELKTRYVGRQDPK [RPN11] | 3.36 ± 0.13 | 3.26 ± 0.14 | 3.56 ± 0.21 |  |
| MDIMEDFLRYINIKYLR [SNF2] | 1.37 ± 0.044 | 1.37 ± 0.12 | 1.3 ± 0.036 | 1.54 ± 0.039 |
| VPLSDNAIIEANLGKYG [RPL7A] | 2.25 ± 0.074 | 2.45 ± 0.074 | 2.28 ± 0.075 | 2.29 ± 0.073 |
| NNNNSNNHNMRNNSNNK [SWI1] | 2.95 ± 0.031 | 2.762 ± 0.026 | 2.764 ± 0.021 | 3.054 ± 0.029 |
| KKHTKKFKRHHSDRYHR [RPL32] | 2.99 ± 0.034 | 2.87 ± 0.029 | 2.971 ± 0.025 | 2.88 ± 0.038 |
| AGAGEANGTVVSFIKNG [MTR3] | 2.53 ± 0.2 |  | 2.21 ± 0.11 | 1.79 ± 0.16 |
| ATSVESVDIGVETILSG [FAS2] | 2.9 ± 0.089 | 2.13 ± 0.089 | 3.1 ± 0.069 | 2.93 ± 0.084 |
| PSSQSQNDTPMFKLGNF [YLR018C/POM34] | 2.8 ± 0.046 | 2.79 ± 0.036 | 2.6 ± 0.028 | 2.54 ± 0.044 |
| GRIPLHWSVSFQAHEIT [NAS6] | 2.84 ± 0.056 | 2.48 ± 0.073 | 2.69 ± 0.037 | 2.87 ± 0.057 |
| FYDYIKERSIVVGRTTR [REC8] | 1.72 ± 0.064 | 1.22 ± 0.13 | 1.17 ± 0.045 | 1.9 ± 0.077 |
| PHQSPDATRVFVNGVWH [RPB2] | 3.05 ± 0.056 | 2.98 ± 0.047 | 3.15 ± 0.045 | 2.84 ± 0.061 |
| EVAQLGSLACDTADEAK [RPB4] | 3.28 ± 0.13 | 3.28 ± 0.17 | 2.73 ± 0.11 | 3.49 ± 0.15 |
| GNVLINDTLPDEISPEL [SNU114] | 2.77 ± 0.097 | 3.32 ± 0.081 | 2.71 ± 0.17 | 2.99 ± 0.089 |
| LGRDYPIEVDEELLQLF [IRR1] | 1.99 ± 0.24 |  | 1.81 ± 0.24 | 2.19 ± 0.24 |
| QEDFEVVEEFTPVVLAT [RPS5] | 2.45 ± 0.059 | 2.3 ± 0.046 | 2.31 ± 0.042 | 3.1 ± 0.091 |
| FDPFQAVSRSMTDIWNT [ECM29] | 2.73 ± 0.07 | 2.85 ± 0.062 | 2.75 ± 0.071 | 2.81 ± 0.087 |
| ETIKMKELDQELIIDPL [BRN1] | 3.04 ± 0.15 | 2.6 ± 0.26 | 3.01 ± 0.064 | 2.98 ± 0.12 |
| VREFLEKNYDRKEPPAT [PRE6] | 3.28 ± 0.1 | 3.11 ± 0.071 | 3.3 ± 0.068 | 3.29 ± 0.13 |
| RPEQLSNIIHDESDTIS [SNF6] | 2.58 ± 0.063 | 2.02 ± 0.11 | 2.32 ± 0.061 | 1.82 ± 0.09 |
| ISALTQTEIKDIILGQN [PRP8] | 2.51 ± 0.061 | 1.92 ± 0.077 | 1.99 ± 0.052 | 2.1 ± 0.054 |
| KLEEESKRGNDKKHFNN [RPC53] | 3.15 ± 0.094 | 3.17 ± 0.094 | 3.28 ± 0.08 | 3.34 ± 0.098 |
| NPRKRAIPNSIIKRSNG [YMR153W/NUP53] | 2.7 ± 0.1 | 2.67 ± 0.1 | 2.92 ± 0.12 | 2.19 ± 0.091 |
| TEDVRLAPELNQAIWKR [RPL31B] | 2.99 ± 0.083 | 3.03 ± 0.062 | 3.08 ± 0.05 | 2.67 ± 0.069 |
| VKRYRLAPTQLSAEYLV [SIN4] | 2.23 ± 0.056 | 2.3 ± 0.067 | 2.71 ± 0.043 | 2.44 ± 0.062 |
| YEEFRDVAIENNTLSRY [RRP43] | 3.25 ± 0.043 | 3.178 ± 0.029 | 3.2 ± 0.035 | 3.24 ± 0.042 |
| TDANGKTIVTGGNGPED [RPO26] | 3.28 ± 0.099 | 3.48 ± 0.12 | 3.37 ± 0.057 | 3.62 ± 0.21 |

| Sequence | protein stability index (pdr5∆) | protein stability index (san1∆) | protein stability index (ubr1∆) | protein stability index (doa10∆) |
| --- | --- | --- | --- | --- |
| GKILLKGDNITLITSAD [SME1] | 3.23 ± 0.1 | 2.77 ± 0.092 | 3.2 ± 0.053 | 2.62 ± 0.092 |
| ANLLQINVDNDPFFAQS [YML103C/NUP188] | 3.14 ± 0.06 | 2.88 ± 0.055 | 2.93 ± 0.094 | 3.04 ± 0.059 |
| IALEGYRLDIIESALKS [RPN2] | 1.49 ± 0.15 |  | 1.25 ± 0.15 |  |
| EEEQDTGESEESSSEDD [IRR1] | 3.44 ± 0.23 | 3.35 ± 0.11 | 3.43 ± 0.06 | 3.23 ± 0.2 |
| KDTIVKEAEDKTLVALE [RPC37] | 3.11 ± 0.093 | 3.33 ± 0.19 | 3.18 ± 0.097 | 3.4 ± 0.11 |
| KVLKSGSGVDSSKLQLT [RRP42] | 2.94 ± 0.1 | 3.16 ± 0.074 | 3.29 ± 0.1 | 2.94 ± 0.14 |
| KRLLGTAFKSSPFGGSS [RPS23A] | 2.61 ± 0.045 | 2.33 ± 0.055 | 2.23 ± 0.034 | 2.22 ± 0.043 |
| DDFEEDEDEEDDDDYNA [RPC31] | 3.31 ± 0.12 | 3.2 ± 0.09 | 3.46 ± 0.29 |  |
| LALMTAHSLSPKDYIKK [CDC53] | 3.03 ± 0.059 | 3.25 ± 0.04 | 3.15 ± 0.052 | 3.1 ± 0.06 |
| FKYVEDRFPLKLREPVA [ITC1] |  | 1.81 ± 0.26 | 2.73 ± 0.093 | 2.42 ± 0.094 |
| KVDATPEESKPINLQNG [YLR335W/NUP2] | 2.95 ± 0.079 | 2.8 ± 0.06 | 3.21 ± 0.049 | 2.9 ± 0.088 |
| FVIGEQGKPYISLPKGK [RPS4A] | 3.21 ± 0.065 | 3.25 ± 0.051 | 2.41 ± 0.053 | 3.34 ± 0.068 |
| MIISGSRDKTIKVWTIK [ASC1] | 2.71 ± 0.092 | 2.49 ± 0.11 | 2.95 ± 0.087 | 2.48 ± 0.084 |
| GQSSVKHEDFVEGISEV [RPT5] |  |  | 3.41 ± 0.2 | 3.7 ± 0.24 |
| YTKETYQSRGIDAMKAV [RPN6] | 2.86 ± 0.072 | 2.83 ± 0.064 | 2.39 ± 0.047 | 2.59 ± 0.069 |
| SDWNPQADLQAMDRAHR [ISW2] | 3.23 ± 0.12 | 3.14 ± 0.11 | 3.39 ± 0.18 | 2.93 ± 0.16 |
| VEINSSESDLDEDKNFP [ESC2] | 2.66 ± 0.056 | 3.25 ± 0.052 | 3.16 ± 0.057 | 2.99 ± 0.063 |
| GKSEKLSLLLVEDKIPL [SKI6] | 2.79 ± 0.095 | 3.23 ± 0.056 | 3.27 ± 0.12 | 2.45 ± 0.11 |
| FSKFERSKSSHKNERRV [SKI6] | 3.16 ± 0.08 | 3 ± 0.064 | 3.25 ± 0.07 | 3.16 ± 0.082 |
| VSRGQSAVLLETTLGEM [PRP8] | 2.36 ± 0.15 |  |  | 2.13 ± 0.12 |
| KYIVKASSGPRYIVGVR [RPT4] | 2.66 ± 0.13 | 3.4 ± 0.089 | 1.89 ± 0.075 | 1.87 ± 0.096 |
| YDYYALQLLPLQKAVRG [SNF2] | 2.24 ± 0.044 | 1.87 ± 0.09 | 1.74 ± 0.035 | 1.63 ± 0.05 |
| LLSKKHGQLKLSIQYMI [RPN5] | 1.96 ± 0.053 | 1.36 ± 0.094 | 1.65 ± 0.053 | 1.43 ± 0.046 |
| TSTVNRLNTVTRVHQLM [MCD1] | 1.49 ± 0.06 | 2.21 ± 0.2 | 2.57 ± 0.094 | 3.22 ± 0.12 |
| SRTAADILLRLCVLWDD [YCG1] |  |  | 3 ± 0.24 | 2.23 ± 0.24 |
| ADKSLPSSMATLLKNLR [YJR042W/NUP85] | 2.81 ± 0.077 | 2.87 ± 0.054 | 2.86 ± 0.057 | 2.97 ± 0.081 |
